# Reference: article PMC11965572
# “And” between values parts separate entries of the source, which are not always exact repeats. Identical values can stand only once.
# Molecular target: wild-type human ACE2-Fc (human) (UniProt Q9BYF1)
# Assay: SEC; protein A-purified wild-type ACE2-Fc fractionated on a Superdex 200 column
substance,measurement,value
wild-type human ACE2-Fc (from UniProt Q9BYF1 18-728) (Fc fusion),percent as higher oligomers,18%
same,percent as tetramers,9%
same,percent in a dimeric state,73%
same,stoichiometry N,2 and 4
